In US20030022820A1, “IN VIVO ACTIVATION OF TUMOR-SPECIFIC CYTOTOXIC T CELLS” (priority 1995, published 2003):

Target: A2.1/K^b on EA2 target cells (UniProt P01901+P04439, D140Y/D185E/D98H/E176V/G131W/I119V/I121R/I166T/N151K/N90K/Q86G/Q94H/R138H/R169H)
Assay type: binding, chimeric human-mouse

Sequence	inhibition of binding of the influenza A-derived peptide to A2.1/K^b (FIG. 5), in words	binding to A2.1/K^b (percent specific lysis of EA2/K^b targets, FIG. 1), in words
ILLVVVLGV [Peptide H9]	highest efficiency	–
ILKEPVHGV [HIV-1 RT: 476-484, reference compound]	–	efficiently bound to A2.1/K^b
